Key:
[1] = biological target: the molecule itself; assay: SDS-resistant band on the immunoblot of the pull-down eluate; The Strep-tagII-S100A13 pull-down eluate from the C6 glioma cytosolic fraction was run on SDS-PAGE and blotted with anti-ANXA2. The 63 kDa band is read as the ANXA2 dimer.
[2] = biological target: T1, recombinant Strep-tagII-S100A13 protein; assay: ELISA; vehicle 0.05% DMSO
T1 chain: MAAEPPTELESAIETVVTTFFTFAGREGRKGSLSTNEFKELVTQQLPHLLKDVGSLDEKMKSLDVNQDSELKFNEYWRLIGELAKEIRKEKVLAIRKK

[3] = biological target: T1, recombinant Strep-tagII-S100A13 protein; assay: ELISA; 100 uM amlexanox

B1: annexin A2 (ANXA2), endogenous in C6 glioma cells (natural protein, rat (endogenous in C6 glioma cells), UniProt Q07936 1-339, looked up)
chain: MSTVHEILCKLSLEGDHSTPPSAYGSVKPYTNFDAERDALNIETAIKTKGVDEVTIVNILTNRSNAQRQDIAFAYQRRTKKELPSAMKSALSGHLETVMLGLLKTPAQYDASELKASMKGLGTDEDSLIEIICSRTNQELQEINRVYKEMYKTDLEKDIISDTSGEFRKLLVALAKGKRAEDGSVIDYELIDQDARELYDAGVKRKGTDVPKWISIMTERSVCHLQKVFERYKSYSPYDMLESIRKEVKGDLENAFLNLVQCIQNKPLYFADRLYDSMKGKGTRDKVLIRIMVSRSEVDMLKIRSEFKRKYGKSLYYFIQQDTKGDYQKALLYLCGGDD
notes: annexin A2, rat, endogenous in C6 glioma cells; In whole cell extracts it ran as a single band; also called dimeric ANXA2 of 63 kDa; ANXA2 dimer; source: endogenous, rat C6 glioma cells (cytosolic fraction; fixed cells for in situ PLA)
stoichiometry N [1]: 2
Kd [2]: 416 nM
Kd [3]: 418 nM

Reference: publication PMC7998613, “Annexin A2 Flop-Out Mediates the Non-Vesicular Release of DAMPs/Alarmins from C6 Glioma Cells Induced by Serum-Free Conditions” (Cells, 2021)
